A short description of series [1]: Stability of Fe forms of pdf at serial dilutions with or without catalase; pdf assay coupled to Vibrio aminopeptidase. The class given is biochemical. The protocol: A description of the optimized assay conditions is as follows. The final assay solution contained 50 mM Hepes, 10 mM NaCl, pH 7.0, 0.1% K-casein (Sigma Chemical Co.; St. Louis, Mo.), 100 micromolar formyl-Met-Leu-p-nitroanilide (prepared by standard methods and commercially available from Bachem Bioscience, Inc.; Philadelphia, Pa.; Catalog No. L2030), 5 nanograms of pdf protein (iron form) or 100 nanograms of pdf protein (zinc form), and V. proteolytica aminopeptidase.
(A) 25 microliters of inhibitor in 15% dimethyl sulfoxide (DMSO) (maximum) was pipetted into 96 well microtiter plates (Immulon II from Dynex Technologies; Chantilly, Va.).
(B) 100 microliters of bulk assay solution was pipetted next. This solution is described as follows, and required that the reagents be mixed in the order shown below (enough for 100 assays):
(C) The plate was preincubated at room temperature for 10 minutes.
(D) Finally, 25 microliters of 0.6 mM f-Met-Leu-p-nitroanilide (prepared by adding 120 microliters of 20 mM stock in 100% MeOH to 3,880 microliters of assay buffer) was added.
(E) Each plate was examined in a SpectraMax 250 reader (Molecular Devices Corp.; Sunnyvale, Calif.) using an absorbance of 405 nm. Time points were taken every 20 seconds over a 30 minute time course at 25° C. Since oxidation might be an issue, the plate was mixed to begin the reaction, but not prior to subsequent time points. Addition of anti-oxidant reagents is not required, and preferably reducing agents are not added. Each line was checked for linearity over time and the resulting R^2 value was expected to be greater than about 0.98 for assay validity.
Expression of the iron form of S. aureus or E. coli pdf (known to be unstable) in E. coli was monitored after the addition of 1.6 mM FeCl3 in the media (Luria broth). Incubation was allowed to proceed for 1 hour prior to the addition of IPTG (0.4 mM). Induction continued for 3 hours at 37° C. Cells were isolated and extracted in the presence of catalase (10 micrograms/ml). The purpose of the catalase was to act as an oxygen scavenger to prevent the inactivation of the Fe form of the E. coil pdf. The extracts were subjected to Ni-NTA chromatography for the purification of the C-terminally His tagged versions of both the E. coli and S. aureus pdf proteins. The purified proteins (concentrated to at least 1 mg/ml by ultrafiltration using a membrane available from Amicon; Bedford, Mass.) were stored in the presence of 10 micrograms/ml (minimum concentration) catalase. To examine the stability of the Fe forms of the pdf proteins, dilutions of the proteins were made in the presence or absence of catalase, followed by assays of the enzymes (serially diluted) in the presence or absence of catalase (at 100 micrograms/ml). Assays were run using formyl-Met-Leu-p-nitroanilide as substrate, coupled to the Vibrio aminopeptidase.
The results, which depict linear reactions catalyzed by pdf, are shown in FIG. 2 for S. aureus pdf and FIG. 3 for E. coli pdf. […] The rates shown are in mOD/minute, and each line represents a different concentration of the pdf in nanogram amounts as listed in the legend. […] This is consistent with a significant loss of enzyme activity in the absence of catalase only for the E. coli enzyme. See Rajagopalan et al., J. Amer. Chem. Soc., 119:12418-19 (1997).

The conditions of series [2]: Fe complex, as reported in prior work; cited from earlier work.

B1: E. coli pdf: Iron form of E. coli peptide deformylase, C-terminally His tagged, known to be unstable, used for comparison (protein, UniProt P0A6K3 2-169, looked up)
Peptide deformylase: SVLQVLHIPDERLRKVAKPVEEVNAEIQRIVDDMFETMYAEEGIGLAATQVDIHQRIIVIDVSENRDERLVLINPELLEKSGETGIEEGCLSIPEQRALVPRAEKVKIRALDRDGKPFELEADGLLAICIQHEMDHLVGKLFMDYLSPLKQQRIRQKVEKLDRLKARA
modifications: C-terminal His tag; iron form
With B1, the Vmax in series [1] (125 ng pdf, with added catalase) was 8.4 mOD/minute; in series [1] (125 ng pdf, without added catalase) it was 2.4 mOD/minute; in series [1] (250 ng pdf, with added catalase) it was 19.2 mOD/minute; in series [1] (250 ng pdf, without added catalase) it was 3.7 mOD/minute; in series [1] (500 ng pdf, with added catalase), 45.1 mOD/minute; in series [1] (500 ng pdf, without added catalase), 6.5 mOD/minute. For the same molecule, the Vmax in series [1] (1000 ng pdf, with added catalase) is on record as 133 mOD/minute; in series [1] (1000 ng pdf, without added catalase), 18.9 mOD/minute. Besides, the “pdf activity as a function of dilution, with versus without catalase in the assay solution” value in series [1] (catalase at 100 micrograms/ml or absent) is listed as “rapidly loses activity”.

B2: Fe complex of pdf: Fe complex of peptide deformylase of the prior art (background, E. coli enzyme context) (protein, UniProt P0A6K3 2-169, looked up)
Peptide deformylase: SVLQVLHIPDERLRKVAKPVEEVNAEIQRIVDDMFETMYAEEGIGLAATQVDIHQRIIVIDVSENRDERLVLINPELLEKSGETGIEEGCLSIPEQRALVPRAEKVKIRALDRDGKPFELEADGLLAICIQHEMDHLVGKLFMDYLSPLKQQRIRQKVEKLDRLKARA
modifications: iron form
As to B2, the half-life result in series [2] is on record as “around 30 seconds”.

The values are drawn from patent US20020102250A1, “Recombinant S. aureus peptide deformylase” (priority 2000, published 2002).
